Measurements from paper PMC5207133.
Read-outs that look alike come from different tables or passages of the source.

How the values were obtained:
[1] = biological target: T1, Ku70/80 heterodimer;APLF (human (HeLa cells);human, UniProt P12956;P13010;Q8IW19 1-609;1-732;1-511, |); settings: protein: native;recombinant, tags: ;GST removed by PreScission protease, copies: 1;1;1, blunt
[2] = biological target: T2, Ku70/80 heterodimer;DNA-PKcs (human (HeLa cells);human (HeLa cells), UniProt P12956;P13010;P78527 1-609;1-732;1-4128, |); settings: protein: native;native, tags: ;, copies: 1;1;1, blunt
[3] = biological target: T3, APLF (human, UniProt Q8IW19 1-511); settings: protein: recombinant; tags: GST removed by PreScission protease; label: 3'-FAM on strand 1; blunt
[4] = biological target: T4, Ku70/80 heterodimer;DNA-PKcs;APLF (human (HeLa cells);human (HeLa …, UniProt P12956;P13010;P78527;Q8IW19 1-609;1-732;1-4128;1-511, ||)); settings: protein: native;native;recombinant; tags: ;;GST removed by PreScission protease; copies: 1;1;1;1; label: 3'-FAM on strand 1; blunt
[5] = biological target: T5, Ku70/80 heterodimer (human (HeLa cells), UniProt P12956;P13010 1-609;1-732); settings: protein: native; copies: 1;1; label: 3'-FAM on strand 1; blunt
[6] = biological target: T4, Ku70/80 heterodimer;DNA-PKcs;APLF; settings: protein: native;native;recombinant; tags: ;;GST removed by PreScission protease; copies: 1;1;1;1; label: 3'-FAM on strand 2; blunt
[7] = biological target: T5, Ku70/80 heterodimer; settings: protein: native; copies: 1;1; label: 3'-FAM on strand 2; blunt
[8] = biological target: Ku70/80 heterodimer;XRCC4-DNA ligase IV (X4L4) (human (HeLa cells);human, UniProt P12956;P13010;Q13426;P49917 1-609;1-732;1-336;1-911, |); settings: protein: native;recombinant; tags: ;; copies: 1;1;2;1; 20-bp duplex with stem-loop at one end and 5-nt overhang at the other
[9] = biological target: T6, Ku70/80 heterodimer;XRCC4-DNA ligase IV (X4L4);APLF (human (HeLa cells);human;human, UniProt P12956;P13010;Q13426;P49917;Q8IW19 1-609;1-732;1-336;1-911;1-511, ||); settings: protein: native;recombinant;recombinant; tags: ;;GST removed by PreScission protease; copies: 1;1;2;1;1; 20-bp duplex with stem-loop at one end and 5-nt overhang at the other
[10] = biological target: T3, APLF; settings: protein: recombinant; tags: GST removed by PreScission protease; 20-bp duplex with stem-loop at one end and 5-nt overhang at the other
[11] = biological target: XRCC4-DNA ligase IV (X4L4) (human, UniProt Q13426;P49917 1-336;1-911); settings: protein: recombinant; chain copies: 2;1; 20-bp duplex with stem-loop at one end and 5-nt overhang at the other
[12] = biological target: T5, Ku70/80 heterodimer; settings: protein: native; copies: 1;1; 20-bp duplex with stem-loop at one end and 5-nt overhang at the other
[13] = biological target: T2, Ku70/80 heterodimer;DNA-PKcs; settings: protein: native;native; tags: ;; copies: 1;1;1; 20-bp duplex with stem-loop at one end and 5-nt overhang at the other
[14] = biological target: T1, Ku70/80 heterodimer;APLF; settings: protein: native;recombinant; tags: ;GST removed by PreScission protease; copies: 1;1;1; 20-bp duplex with stem-loop at one end and 5-nt overhang at the other
[15] = biological target: T4, Ku70/80 heterodimer;DNA-PKcs;APLF; settings: protein: native;native;recombinant; tags: ;;GST removed by PreScission protease; copies: 1;1;1;1; 20-bp duplex with stem-loop at one end and 5-nt overhang at the other
[16] = biological target: T6, Ku70/80 heterodimer;XRCC4-DNA ligase IV …; settings: protein: native;recombinant;recombinant; tags: ;;GST removed by PreScission protease; copies: 1;1;2;1;1; two stem-loop duplexes (strands 1+2, 3+4) annealing via complementary 10-nt A/T overhangs

T5 sequence (P12956 whole entry, chain 1 of 2): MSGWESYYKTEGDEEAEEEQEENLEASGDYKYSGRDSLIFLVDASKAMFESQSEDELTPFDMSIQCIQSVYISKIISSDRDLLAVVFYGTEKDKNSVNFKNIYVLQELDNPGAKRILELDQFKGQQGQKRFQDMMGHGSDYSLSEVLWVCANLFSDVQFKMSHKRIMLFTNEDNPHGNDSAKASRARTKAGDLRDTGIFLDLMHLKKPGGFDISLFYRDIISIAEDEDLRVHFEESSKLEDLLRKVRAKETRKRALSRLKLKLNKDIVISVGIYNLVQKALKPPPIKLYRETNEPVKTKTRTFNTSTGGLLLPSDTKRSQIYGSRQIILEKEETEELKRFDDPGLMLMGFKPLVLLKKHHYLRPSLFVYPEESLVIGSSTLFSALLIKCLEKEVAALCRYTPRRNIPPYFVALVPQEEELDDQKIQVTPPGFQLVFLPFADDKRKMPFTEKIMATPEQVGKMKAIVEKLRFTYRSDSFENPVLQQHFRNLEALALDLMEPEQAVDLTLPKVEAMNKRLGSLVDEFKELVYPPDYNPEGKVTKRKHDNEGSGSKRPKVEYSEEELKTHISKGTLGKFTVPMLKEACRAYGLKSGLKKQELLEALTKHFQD
T5 sequence (P13010 whole entry, chain 2 of 2): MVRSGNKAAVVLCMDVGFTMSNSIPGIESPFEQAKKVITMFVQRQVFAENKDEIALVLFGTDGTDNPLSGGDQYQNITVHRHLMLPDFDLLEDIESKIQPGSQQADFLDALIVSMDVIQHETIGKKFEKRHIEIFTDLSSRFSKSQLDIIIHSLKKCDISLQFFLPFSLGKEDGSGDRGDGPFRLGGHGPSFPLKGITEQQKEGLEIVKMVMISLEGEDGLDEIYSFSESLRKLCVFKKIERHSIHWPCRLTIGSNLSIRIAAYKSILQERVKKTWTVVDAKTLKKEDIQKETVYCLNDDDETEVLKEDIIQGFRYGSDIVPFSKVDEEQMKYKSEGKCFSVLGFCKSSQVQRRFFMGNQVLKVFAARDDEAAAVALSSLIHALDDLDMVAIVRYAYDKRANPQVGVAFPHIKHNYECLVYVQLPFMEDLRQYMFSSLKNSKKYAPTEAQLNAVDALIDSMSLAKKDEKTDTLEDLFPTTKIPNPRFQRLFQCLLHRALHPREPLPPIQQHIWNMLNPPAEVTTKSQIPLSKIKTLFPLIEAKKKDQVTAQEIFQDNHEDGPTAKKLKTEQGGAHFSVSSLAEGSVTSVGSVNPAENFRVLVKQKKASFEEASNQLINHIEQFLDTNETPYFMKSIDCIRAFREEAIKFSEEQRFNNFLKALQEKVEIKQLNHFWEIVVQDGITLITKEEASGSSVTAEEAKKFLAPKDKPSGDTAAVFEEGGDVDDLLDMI
T1 sequence (P12956 whole entry, chain 1 of 3): as the sequence (P12956 whole entry, chain 1 of 2) above
T1 sequence (P13010 whole entry, chain 2 of 3): as the sequence (P13010 whole entry, chain 2 of 2) above
T1 sequence (Q8IW19 whole entry, chain 3 of 3): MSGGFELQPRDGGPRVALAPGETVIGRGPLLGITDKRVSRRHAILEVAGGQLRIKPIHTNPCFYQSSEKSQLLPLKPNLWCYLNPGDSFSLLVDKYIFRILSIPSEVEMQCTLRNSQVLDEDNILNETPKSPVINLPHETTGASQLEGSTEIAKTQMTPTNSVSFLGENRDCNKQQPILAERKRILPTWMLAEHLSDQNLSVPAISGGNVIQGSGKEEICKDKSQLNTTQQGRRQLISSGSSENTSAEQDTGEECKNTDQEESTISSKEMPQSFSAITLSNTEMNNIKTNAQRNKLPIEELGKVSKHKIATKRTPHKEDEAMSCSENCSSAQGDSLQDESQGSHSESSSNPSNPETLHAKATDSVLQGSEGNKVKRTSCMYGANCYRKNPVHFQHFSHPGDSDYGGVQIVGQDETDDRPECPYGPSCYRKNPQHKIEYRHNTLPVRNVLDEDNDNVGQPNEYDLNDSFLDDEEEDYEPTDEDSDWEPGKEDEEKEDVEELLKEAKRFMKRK
Sequence of Ku70/80 heterodimer;XRCC4-DNA ligase IV (X4L4) (P12956 whole entry, chain 1 of 4): as the sequence (P12956 whole entry, chain 1 of 2) above
Sequence of Ku70/80 heterodimer;XRCC4-DNA ligase IV (X4L4) (P13010 whole entry, chain 2 of 4): as the sequence (P13010 whole entry, chain 2 of 2) above
Sequence of Ku70/80 heterodimer;XRCC4-DNA ligase IV (X4L4) (Q13426 whole entry, chain 3 of 4): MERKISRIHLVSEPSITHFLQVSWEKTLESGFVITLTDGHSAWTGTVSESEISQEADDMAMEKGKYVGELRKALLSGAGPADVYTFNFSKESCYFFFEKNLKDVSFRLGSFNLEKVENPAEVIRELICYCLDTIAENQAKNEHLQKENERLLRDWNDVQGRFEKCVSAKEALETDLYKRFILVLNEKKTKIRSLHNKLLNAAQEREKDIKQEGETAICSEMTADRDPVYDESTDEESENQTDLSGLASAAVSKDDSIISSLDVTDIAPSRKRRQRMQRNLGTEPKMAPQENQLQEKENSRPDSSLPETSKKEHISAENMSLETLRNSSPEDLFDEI
Sequence of Ku70/80 heterodimer;XRCC4-DNA ligase IV (X4L4) (P49917 whole entry, chain 4 of 4): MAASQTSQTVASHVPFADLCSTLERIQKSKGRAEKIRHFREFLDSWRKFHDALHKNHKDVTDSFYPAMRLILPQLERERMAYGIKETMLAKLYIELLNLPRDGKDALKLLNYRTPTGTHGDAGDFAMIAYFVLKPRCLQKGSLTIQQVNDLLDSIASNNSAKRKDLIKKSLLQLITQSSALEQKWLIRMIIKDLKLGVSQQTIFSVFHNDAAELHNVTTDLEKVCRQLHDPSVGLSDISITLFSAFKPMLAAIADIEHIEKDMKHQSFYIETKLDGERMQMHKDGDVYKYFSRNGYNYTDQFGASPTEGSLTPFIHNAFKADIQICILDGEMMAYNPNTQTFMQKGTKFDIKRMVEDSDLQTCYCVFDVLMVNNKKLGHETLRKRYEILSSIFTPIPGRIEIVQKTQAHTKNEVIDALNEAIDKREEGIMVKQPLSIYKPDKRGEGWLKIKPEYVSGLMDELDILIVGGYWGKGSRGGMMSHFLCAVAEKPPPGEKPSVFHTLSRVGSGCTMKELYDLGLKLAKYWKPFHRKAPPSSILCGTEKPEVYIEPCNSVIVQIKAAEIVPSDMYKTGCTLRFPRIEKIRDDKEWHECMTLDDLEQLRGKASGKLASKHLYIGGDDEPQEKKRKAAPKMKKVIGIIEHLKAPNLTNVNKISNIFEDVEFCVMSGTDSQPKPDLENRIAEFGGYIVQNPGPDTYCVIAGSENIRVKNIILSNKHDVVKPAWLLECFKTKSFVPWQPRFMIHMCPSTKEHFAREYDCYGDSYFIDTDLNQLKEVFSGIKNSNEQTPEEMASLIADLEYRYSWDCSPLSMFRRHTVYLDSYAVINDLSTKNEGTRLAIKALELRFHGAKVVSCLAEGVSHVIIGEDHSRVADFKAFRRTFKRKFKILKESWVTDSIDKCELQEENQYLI
Sequence of XRCC4-DNA ligase IV (X4L4) (Q13426 whole entry, chain 1 of 2): as the sequence (Q13426 whole entry, chain 3 of 4) above
Sequence of XRCC4-DNA ligase IV (X4L4) (P49917 whole entry, chain 2 of 2): as the sequence (P49917 whole entry, chain 4 of 4) above

B1: 40bpDNA 3'-FAM (dsDNA)
DNA 1: GGATACACAACAGACCGCAACACTCAGATTACTTTTCGCC
DNA 2: GGCGAAAAGTAATCTGAGTGTTGCGGTCTGTTGTGTATCC
B1: binds ([1]; label: 3'-FAM on strand 1); binds ([2]; label: 3'-FAM on strand 1); no binding [3]. B1: binds [4]; binds [5].

B2: 25bpDNA 3'-FAM (dsDNA)
DNA 1: AGCATTGACTGGCATCGTAGCATCC
DNA 2: GGATGCTACGATGCCAGTCAATGCT
B2: binds ([1]; label: 3'-FAM on strand 2); binds ([2]; label: 3'-FAM on strand 2); binds [6]. B2: binds [7].

B3: 20bpDNA (stem-loop A) (structured_DNA)
DNA 1: CCCACCCAAAAATCAATAATCGACCCTTTCGACCCGCGC
DNA 2: GCGCGGGTTATTTGATTTTTGGGTGGGGTCGA
B3: binds [8]; binds [9]; no binding [10]. B3: no binding [11]; binds [12]; binds [13]. B3: binds [14]; binds [15].

B4: 20bpDNA-10nt (stem-loop B plus complementary stem-loop) (structured_DNA)
DNA 1: CCCACCCAAAAATCAATAATCGACCCTTTCGACCCGCGC
DNA 2: GCGCGGGTTATTTGATTTTTGGGTGGGAAAAAAAAAA
DNA 3: TTTTTTTTTTCCCACCCAAAAATCAAATAATCGACCCTTTCGACCCGCGC
DNA 4: GCGCGGGTTATTTGATTTTTGGGTGGG
B4: binds [16].
